{"source": "patent US9109237B2", "about": "“Method of preparing piceatannol using bacterial cytochrome P450 and composition therefor” (priority 2008, dated 2015)", "molecules": {"B1": {"name": "human CYP1A2: Human cytochrome P450 1A2, prepared as disclosed by Kim et al. (2008c); comparison enzyme (protein, UniProt P05177 2-516, looked up)", "Cytochrome P450 1A2": "ALSQSVPFSATELLLASAIFCLVFWVLKGLRPRVPKGLKSPPEPWGWPLLGHVLTLGKNPHLALSRMSQRYGDVLQIRIGSTPVLVLSRLDTIRQALVRQGDDFKGRPDLYTSTLITDGQSLTFSTDSGPVWAARRRLAQNALNTFSIASDPASSSSCYLEEHVSKEAKALISRLQELMAGPGHFDPYNQVVVSVANVIGAMCFGQHFPESSDEMLSLVKNTHEFVETASSGNPLDFFPILRYLPNPALQRFKAFNQRFLWFLQKTVQEHYQDFDKNSVRDITGALFKHSKKGPRASGNLIPQEKIVNLVNDIFGAGFDTVTTAISWSLMYLVTKPEIQRKIQKELDTVIGRERRPRLSDRPQLPYLEAFILETFRHSSFLPFTIPHSTTRDTTLNGFYIPKKCCVFVNQWQVNHDPELWEDPSEFRPERFLTADGTAINKPLSEKMMLFGMGKRRCIGEVLAKWEIFLFLAILLQQLEFSVPPGVKVDLTPIYGLTMKHARCEHVQARLRFSIN"}, "B2": {"name": "WT: BM3 wild type; bacterial cytochrome P450 BM3 (CYP102A1) from Bacillus megaterium, SEQ ID NO:16 (protein, listed as Bacillus megaterium)", "chain": "TIKEMPQPKTFGELKNLPLLNTDKPVQALMKIADELGEIFKFEAPGRVTRYLSSQRLIKEACDESRFDKNLSQALKFVRDFAGDGLFTSWTHEKNWKKAHNILLPSFSQQAMKGYHAMMVDIAVQLVQKWERLNADEHIEVPEDMTRLTLDTIGLCGFNYRFNSFYRDQPHPFITSMVRALDEAMNKLQRANPDDPAYDENKRQFQEDIKVMNDLVDKIIADRKASGEQSDDLLTHMLNGKDPETGEPLDDENIRYQIITFLIAGHETTSGLLSFALYFLVKNPHVLQKAAEEAARVLVDPVPSYKQVKQLKYVGMVLNEALRLWPTAPAFSLYAKEDTVLGGEYPLEKGDELMVLIPQLHRDKTIWGDDVEEFRPERFENPSAIPQHAFKPFGNGQRACIGQQFALHEATLVLGMMLKHFDFEDHTNYELDIKETLTLKPEGFVVKAKSKKIPLGGIPSPSTEQSAKKVRKKAENAHNTPLLVLYGSNMGTAEGTARDLADIAMSKGFAPQVATLDSHAGNLPREGAVLIVTASYNGHPPDNAKQFVDWLDQASADEVKGVRYSVFGCGDKNWATTYQKVPAFIDETLAAKGAENIADRGEADASDDFEGTYEEWREHMWSDVAAYFNLDIENSEDNKSTLSLQFVDSAADMPLAKMHGAFSTNVVASKELQQPGSARSTRHLEIELPKEASYQEGDHLGVIPRNYEGIVNRVTARFGLDASQQIRLEAEEEKLAHLPLAKTVSVEELLQYVELQDPVTRTQLRAMAAKTVCPPHKVELEALLEKQAYKEQVLAKRLTMLELLEKYPACEMKFSEFIALLPSIRPRYYSISSSPRVDEKQASITVSVVSGEAWSGYGEYKGIASNYLAELQEGDTITCFISTPQSEFTLPKDPETPLIMVGPGTGVAPFRGFVQARKQLKEQGQSLGEAHLYFGCRSPHEDYLYQEELENAQSEGIITLHTAFSRMPNQPKTYVQHVMEQDGKKLIELLDQGAHFYICGDGSQMAPAVEATLMKSYADVHQVSEADARLWLQQLEEKGRYAKDVWAG"}}, "key": {"human CYP1A2": {"biological_target": "T1, human CYP1A2 (Homo sapiens, UniProt P05177)", "T1 sequence (P05177 1-516)": "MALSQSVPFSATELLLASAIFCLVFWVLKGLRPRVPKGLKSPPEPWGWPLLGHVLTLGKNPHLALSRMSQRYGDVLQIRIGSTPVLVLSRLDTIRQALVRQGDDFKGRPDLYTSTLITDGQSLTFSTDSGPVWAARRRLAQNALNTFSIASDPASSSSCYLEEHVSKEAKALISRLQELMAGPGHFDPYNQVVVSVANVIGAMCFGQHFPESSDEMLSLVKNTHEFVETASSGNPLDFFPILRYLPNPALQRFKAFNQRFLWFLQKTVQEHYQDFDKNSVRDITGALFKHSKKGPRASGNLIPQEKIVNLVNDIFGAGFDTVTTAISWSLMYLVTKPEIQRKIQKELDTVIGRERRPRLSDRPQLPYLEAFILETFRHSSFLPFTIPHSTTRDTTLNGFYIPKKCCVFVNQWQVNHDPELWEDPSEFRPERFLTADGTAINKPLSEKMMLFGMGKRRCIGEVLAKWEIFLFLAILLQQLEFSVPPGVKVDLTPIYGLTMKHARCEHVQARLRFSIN", "settings": "cited from earlier work"}, "[1]": {"test": "Kinetic parameters of piceatannol formation (3'-hydroxylation of resveratrol)", "assay_type": "biochemical", "description": "Oxidation of trans-resveratrol, a substrate of human CYP1A2, by CYP102A1 was identified. Typical steady-state reactions for trans-resveratrol hydroxylation included 50 pmol P450 BM3 in 0.25 ml of a 100 mM potassium phosphate buffer (pH 7.4) were performed along with a specified amount of a substrate. To determine the kinetic parameter of several CYP102A1 mutants, 2 to 100 μM of trans-resveratrol was used. An NADPH-generating system was used to initiate reaction solutions (final concentrations: 10 mM glucose 6-phosphate, 0.5 mM NADP+, and 1 IU yeast glucose 6-phosphate per ml). Trans-resveratrol stocks (20 mM) were prepared in DMSO and diluted into the enzyme reactions with the final organic solvent concentration <1% (v/v). […]\nAfter centrifugation of the reaction mixture, the supernatant was analyzed by HPLC (Piver et al. 2004). […] Eluates were detected by UV rays at 320 nm.\nKinetic parameters (Km and kcat) were determined using nonlinear regression analysis with GraphPad PRISM software (GraphPad, San Diego, Calif., USA). The data were analyzed using the standard Michaelis-Menten equation: v=kcat[E][S]/([S]+Km), where the velocity of the reaction is a function of the rate-limiting step in turnover (kcat), the enzyme concentration ([E]), substrate concentration ([S]), and the Michaelis constant (Km)."}, "[2]": {"test": "Resveratrol metabolite profile by HPLC and GC-MS", "assay_type": "biochemical", "settings": "HPLC, UV 320 nm", "description": "(§1) Oxidation of trans-resveratrol, a substrate of human CYP1A2, by CYP102A1 was identified. Typical steady-state reactions for trans-resveratrol hydroxylation included 50 pmol P450 BM3 in 0.25 ml of a 100 mM potassium phosphate buffer (pH 7.4) were performed along with a specified amount of a substrate. To determine the kinetic parameter of several CYP102A1 mutants, 2 to 100 μM of trans-resveratrol was used. An NADPH-generating system was used to initiate reaction solutions (final concentrations: 10 mM glucose 6-phosphate, 0.5 mM NADP+, and 1 IU yeast glucose 6-phosphate per ml). Trans-resveratrol stocks (20 mM) were prepared in DMSO and diluted into the enzyme reactions with the final organic solvent concentration <1% (v/v). Reactions were generally incubated for 10 min at 37° C., and terminated with 105 μl of ice-cold acetic acid/methanol (95/5, v/v).\nAfter centrifugation of the reaction mixture, the supernatant was analyzed by HPLC (Piver et al. 2004). Samples (30 μl) were injected into a Gemini C18 column (4.6 mm×150 mm, 5 μm, Phenomenex, Torrance, Calif.). The mobile phase A was water containing 87 mM of 0.5% acetic acid/acetonitrile (95/5, v/v); whereas the mobile phase B was acetonitrile/0.5% acetic acid (95/5, v/v). […] Eluates were detected by UV rays at 320 nm. […]"}, "[3]": {"test": "Rates of piceatannol formation (trans-resveratrol hydroxylation) at fixed substrate concentration, HPLC", "assay_type": "biochemical", "settings": "fixed substrate concentration 100 μM trans-resveratrol", "description": "as §1\nAfter centrifugation of the reaction mixture, the supernatant was analyzed by HPLC (Piver et al. 2004). Samples (30 μl) were injected into a Gemini C18 column (4.6 mm×150 mm, 5 μm, Phenomenex, Torrance, Calif.). […] Eluates were detected by UV rays at 320 nm.\nThe ability of wild-type P450 BM3 and mutants of P450 BM3 to oxidize trans-resveratrol was measured at a fixed substance concentration (100 μM)."}}}
{"molecule": "Oc1cc(O)cc(C=Cc2ccc(O)c(O)c2)c1", "note": "[Piceatannol, 3,5,3′,4′-tetrahydroxystilbene]", "values": [{"measurement": "Inhibition of human CYP1A2 (in words)", "setting": "human CYP1A2", "result": "potent inhibitor"}]}
{"molecule": "Oc1ccc(C=Cc2cc(O)cc(O)c2)cc1", "note": "[Resveratrol, 3,4′,5-trihydroxystilbene]", "values": [{"measurement": "Inhibition of human CYP1A2 (in words)", "setting": "human CYP1A2", "result": "substrate and inhibitor"}]}
{"molecule": "B1", "values": [{"measurement": "Kinetic parameters, result in words", "setting": "[1]", "result": "kinetic parameters could not be obtained"}, {"measurement": "Metabolites produced on oxidation of resveratrol", "setting": "[2]", "result": "two major metabolites: piceatannol and other hydroxylated products"}]}
{"molecule": "B2", "values": [{"measurement": "Rate of piceatannol formation", "setting": "[3]", "result": "0.22 ± 0.01 nmol product/min/nmol P450"}, {"measurement": "Metabolites produced on oxidation of resveratrol", "setting": "[2]", "result": "only one major metabolite"}]}
